Laboratory results taken from patent EP4772538A1.

Molecular target: CD3D-CD3E-mFc (human; mouse)
Experiment: SPR, Biacore T200, method of Section 3.1; affinity for CD3D-CD3E-mFc

Kd: 1.08 nM | koff: 0.00028 s⁻¹ | kon: 258000 M⁻¹ s⁻¹
Substance: TCR/CD3 bispecific molecule IMC-C103C (control bifunctional molecule)
